Laboratory results published in US7132258B1, “Nucleic acid encoding vitamin D receptor related polypeptide” (University of Massachusetts, priority 1998, dated 2006).

Legend:
PPAR (LBD of mPPARα) = target: T1, PPAR (LBD of mPPARα) (Mus musculus, UniProt P23204); test: Yeast two-hybrid interaction with PPAR; assay type: binding; conditions: β-galactosidase ONPG assay, 1 μM ligand or vehicle
T1 construct: PPAR (LBD of mPPARα); expressed in transfected cells; host or cells: Saccharomyces cerevisiae Y190
T1 sequence (P23204 239-466 limits assumed): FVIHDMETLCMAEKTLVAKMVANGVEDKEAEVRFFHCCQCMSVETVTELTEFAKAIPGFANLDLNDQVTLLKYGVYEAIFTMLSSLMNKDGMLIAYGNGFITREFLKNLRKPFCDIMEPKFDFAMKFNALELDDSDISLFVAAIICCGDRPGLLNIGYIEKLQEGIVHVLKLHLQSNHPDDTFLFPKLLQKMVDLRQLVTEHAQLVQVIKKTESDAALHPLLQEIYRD
T1 sequence (Q9Y6Q9 401-1204 E704Q partner limits assumed): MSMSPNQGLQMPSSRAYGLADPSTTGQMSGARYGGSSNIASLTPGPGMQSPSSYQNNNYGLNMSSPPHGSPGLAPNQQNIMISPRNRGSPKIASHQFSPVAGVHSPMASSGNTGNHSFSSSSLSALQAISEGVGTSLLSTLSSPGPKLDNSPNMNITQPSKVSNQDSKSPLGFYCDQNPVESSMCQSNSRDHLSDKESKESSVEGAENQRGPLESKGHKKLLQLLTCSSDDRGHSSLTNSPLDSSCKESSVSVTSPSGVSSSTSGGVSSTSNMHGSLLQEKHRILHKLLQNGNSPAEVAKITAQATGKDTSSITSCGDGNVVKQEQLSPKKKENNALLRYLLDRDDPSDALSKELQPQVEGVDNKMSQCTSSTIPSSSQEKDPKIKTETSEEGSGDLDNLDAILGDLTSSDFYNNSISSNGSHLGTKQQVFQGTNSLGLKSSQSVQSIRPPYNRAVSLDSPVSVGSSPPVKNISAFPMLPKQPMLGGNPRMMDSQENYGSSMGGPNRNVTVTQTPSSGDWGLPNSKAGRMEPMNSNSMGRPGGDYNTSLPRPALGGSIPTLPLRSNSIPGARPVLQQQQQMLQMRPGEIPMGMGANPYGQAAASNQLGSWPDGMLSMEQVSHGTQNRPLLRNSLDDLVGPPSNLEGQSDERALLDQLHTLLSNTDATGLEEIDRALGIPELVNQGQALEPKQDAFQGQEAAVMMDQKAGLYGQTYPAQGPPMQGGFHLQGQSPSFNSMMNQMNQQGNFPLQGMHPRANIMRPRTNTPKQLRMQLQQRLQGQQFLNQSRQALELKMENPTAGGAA
Procedure: (§1) The protein—protein interactions between RAC3 and several steroid/nuclear receptors were analyzed by the yeast two-hybrid system. The original two-hybrid clone, RAC3.1 in pGAD10 vector, was retransformed together with yeast expression vectors for Gal4 DBD fusion of selected hormone receptor genes into Y190 cells. The receptors used include RAR (full-length hRARα), RXR (full-length hRXRα), VDR (LBD of human Vitamin D receptor), PPAR (LBD of mPPARα), TR (LBD) of hTRβ), COUP (LBD of COUP-TFI). Three independent colonies from each transformation were selected and analyzed for expression of […] activities by liquid ONPG assay (FIG. 6) after treatment with 1 μM of corresponding ligands (closed bars), or with equal concentration of vehicle alone (open bars). […] The ligands used in these experiments were atRA, VitD3 (1,25-dihydroxyvitamin D3), and Wy (Wy 14,642). […] In the absence of ligand, RAC3 can interact with RAR and PPAR.

COUP (LBD of COUP-TFI) = target: T2, COUP (LBD of COUP-TFI) (Homo sapiens, UniProt P10589); test: Yeast two-hybrid interaction with COUP-TFI; assay type: binding; conditions: β-galactosidase ONPG assay
T2 construct: COUP (LBD of COUP-TFI); expressed in transfected cells; host or cells: Saccharomyces cerevisiae Y190
T2 sequence (P10589 184-410 limits assumed): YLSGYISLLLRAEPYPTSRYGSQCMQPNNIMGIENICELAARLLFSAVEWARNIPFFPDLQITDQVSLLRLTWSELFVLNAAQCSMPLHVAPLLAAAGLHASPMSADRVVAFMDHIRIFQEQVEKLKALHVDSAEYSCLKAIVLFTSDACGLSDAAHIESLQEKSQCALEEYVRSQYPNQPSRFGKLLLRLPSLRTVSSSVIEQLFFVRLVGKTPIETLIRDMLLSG
Procedure: as §1

[1] = target: T3, human progesterone receptor (hPR) (Homo sapiens, UniProt P06401); test: Coactivation of hPR on MMTV-LTR luciferase reporter in CV-1 cells; assay type: cell-based; conditions: coexpressed RAC3, 100 nM progesterone
T3 construct: expressed in transfected cells; host or cells: CV-1 monkey kidney cells
T3 sequence (P06401 whole entry): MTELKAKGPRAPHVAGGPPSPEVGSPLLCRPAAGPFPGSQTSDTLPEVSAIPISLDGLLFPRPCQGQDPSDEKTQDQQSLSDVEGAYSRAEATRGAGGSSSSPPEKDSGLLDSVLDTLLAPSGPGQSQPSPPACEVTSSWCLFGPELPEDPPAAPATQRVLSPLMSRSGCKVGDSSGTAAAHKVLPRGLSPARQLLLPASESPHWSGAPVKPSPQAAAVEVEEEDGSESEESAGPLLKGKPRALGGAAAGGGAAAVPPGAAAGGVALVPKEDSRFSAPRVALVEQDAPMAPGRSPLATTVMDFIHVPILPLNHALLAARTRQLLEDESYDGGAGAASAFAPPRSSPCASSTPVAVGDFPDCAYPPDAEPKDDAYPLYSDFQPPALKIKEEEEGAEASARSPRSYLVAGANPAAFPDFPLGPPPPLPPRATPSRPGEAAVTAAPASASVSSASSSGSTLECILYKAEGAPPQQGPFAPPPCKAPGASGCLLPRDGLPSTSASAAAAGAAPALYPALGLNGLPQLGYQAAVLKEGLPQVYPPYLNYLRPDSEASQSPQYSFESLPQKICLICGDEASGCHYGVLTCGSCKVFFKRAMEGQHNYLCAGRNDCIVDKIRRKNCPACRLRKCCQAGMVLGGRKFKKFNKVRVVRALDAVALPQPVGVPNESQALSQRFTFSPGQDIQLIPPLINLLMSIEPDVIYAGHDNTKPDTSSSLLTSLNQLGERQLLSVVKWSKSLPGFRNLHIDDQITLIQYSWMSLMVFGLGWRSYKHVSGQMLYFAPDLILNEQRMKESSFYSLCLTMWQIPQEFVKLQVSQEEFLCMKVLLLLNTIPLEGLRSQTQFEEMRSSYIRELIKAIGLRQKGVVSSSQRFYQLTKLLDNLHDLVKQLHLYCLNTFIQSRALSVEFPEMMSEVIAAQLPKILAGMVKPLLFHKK
T3 sequence (Q9Y6Q9 with tags, fused parts or gaps isoform Q9Y6Q9-5 D131E/G132A/T187P/E704Q/DEL1268-1272 partner): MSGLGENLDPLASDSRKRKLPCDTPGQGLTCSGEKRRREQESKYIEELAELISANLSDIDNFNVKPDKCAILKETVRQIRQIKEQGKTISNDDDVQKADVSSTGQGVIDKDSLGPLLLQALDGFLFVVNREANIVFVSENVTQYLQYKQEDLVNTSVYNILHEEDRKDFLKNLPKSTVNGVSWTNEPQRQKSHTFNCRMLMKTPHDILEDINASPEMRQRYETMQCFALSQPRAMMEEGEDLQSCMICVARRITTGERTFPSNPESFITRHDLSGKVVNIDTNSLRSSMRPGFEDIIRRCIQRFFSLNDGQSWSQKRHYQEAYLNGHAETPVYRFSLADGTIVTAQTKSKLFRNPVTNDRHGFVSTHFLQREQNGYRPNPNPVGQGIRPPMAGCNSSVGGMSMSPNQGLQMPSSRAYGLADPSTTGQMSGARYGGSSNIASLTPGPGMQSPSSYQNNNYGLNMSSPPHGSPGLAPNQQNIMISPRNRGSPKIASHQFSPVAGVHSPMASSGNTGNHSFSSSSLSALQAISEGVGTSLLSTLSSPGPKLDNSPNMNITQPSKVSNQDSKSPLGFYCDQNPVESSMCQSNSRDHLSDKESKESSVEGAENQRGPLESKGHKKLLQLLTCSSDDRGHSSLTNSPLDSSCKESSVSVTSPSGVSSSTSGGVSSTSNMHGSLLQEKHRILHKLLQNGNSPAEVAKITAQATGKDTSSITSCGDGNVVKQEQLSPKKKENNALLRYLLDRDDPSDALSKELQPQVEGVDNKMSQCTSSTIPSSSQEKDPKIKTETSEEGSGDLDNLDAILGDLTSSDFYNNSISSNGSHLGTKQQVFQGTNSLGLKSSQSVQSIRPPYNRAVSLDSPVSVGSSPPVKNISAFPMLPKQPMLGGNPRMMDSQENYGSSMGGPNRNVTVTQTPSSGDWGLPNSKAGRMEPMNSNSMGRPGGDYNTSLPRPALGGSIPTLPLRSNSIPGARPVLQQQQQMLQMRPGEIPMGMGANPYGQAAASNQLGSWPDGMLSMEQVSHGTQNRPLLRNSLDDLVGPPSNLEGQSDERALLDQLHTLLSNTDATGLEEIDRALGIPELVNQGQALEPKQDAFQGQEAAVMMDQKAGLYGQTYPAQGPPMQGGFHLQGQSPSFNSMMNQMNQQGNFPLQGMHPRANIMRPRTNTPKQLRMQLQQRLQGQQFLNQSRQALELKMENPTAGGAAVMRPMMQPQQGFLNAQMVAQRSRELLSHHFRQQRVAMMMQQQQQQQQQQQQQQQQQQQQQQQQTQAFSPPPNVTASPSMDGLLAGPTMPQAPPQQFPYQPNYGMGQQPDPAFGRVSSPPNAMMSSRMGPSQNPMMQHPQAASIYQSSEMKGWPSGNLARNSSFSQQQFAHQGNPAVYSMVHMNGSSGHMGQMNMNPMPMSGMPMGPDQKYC
Procedure: In this experiment, transfected cells were treated with or without 100 nM of progesterone at presence or absence of coexpressed RAC3 or SRC-1 in CV-1 cells.
Thus, RAC3 is a bona fide transcriptional coactivator for mammalian steroid/nuclear hormone receptors.

[2] = target: T4, VDR (LBD of human Vitamin D receptor) (Homo sapiens, UniProt P11473); test: Yeast two-hybrid interaction with VDR; assay type: binding; conditions: β-galactosidase ONPG assay, 1 μM ligand or vehicle
T4 construct: VDR (LBD of human Vitamin D receptor); expressed in transfected cells; host or cells: Saccharomyces cerevisiae Y190
T4 sequence (P11473 127-423 limits assumed): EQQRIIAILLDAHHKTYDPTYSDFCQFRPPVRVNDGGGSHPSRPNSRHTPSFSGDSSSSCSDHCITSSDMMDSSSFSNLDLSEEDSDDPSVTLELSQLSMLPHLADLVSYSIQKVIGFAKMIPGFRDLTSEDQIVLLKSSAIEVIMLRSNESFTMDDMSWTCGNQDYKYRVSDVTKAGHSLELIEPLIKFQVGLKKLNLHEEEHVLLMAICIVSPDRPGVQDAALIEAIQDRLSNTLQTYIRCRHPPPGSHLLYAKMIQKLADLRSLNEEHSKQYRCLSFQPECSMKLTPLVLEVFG
T4 sequence (Q9Y6Q9 401-1204 E704Q partner limits assumed): T1 sequence (Q9Y6Q9 401-1204 E704Q partner limits assumed)
Procedure: as §1

RAR (full-length hRARα) = target: T5, RAR (full-length hRARα) (Homo sapiens, UniProt P10276); test: Yeast two-hybrid interaction with RAR; assay type: binding; conditions: β-galactosidase ONPG assay, 1 μM ligand or vehicle
T5 construct: RAR (full-length hRARα); expressed in transfected cells; host or cells: Saccharomyces cerevisiae Y190
T5 sequence (P10276 1-462): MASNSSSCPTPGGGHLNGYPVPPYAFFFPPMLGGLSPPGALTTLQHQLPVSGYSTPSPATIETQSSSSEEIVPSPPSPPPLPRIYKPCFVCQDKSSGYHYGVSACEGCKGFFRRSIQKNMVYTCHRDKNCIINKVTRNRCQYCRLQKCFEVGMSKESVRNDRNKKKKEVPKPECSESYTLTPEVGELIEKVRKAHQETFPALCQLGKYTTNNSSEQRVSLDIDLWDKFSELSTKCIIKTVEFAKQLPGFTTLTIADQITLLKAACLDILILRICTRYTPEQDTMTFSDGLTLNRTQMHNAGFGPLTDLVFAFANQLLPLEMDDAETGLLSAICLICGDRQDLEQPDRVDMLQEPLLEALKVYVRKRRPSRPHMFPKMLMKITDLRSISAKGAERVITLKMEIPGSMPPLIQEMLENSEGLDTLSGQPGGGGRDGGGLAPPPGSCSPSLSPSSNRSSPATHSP
T5 sequence (Q9Y6Q9 401-1204 E704Q partner limits assumed): T1 sequence (Q9Y6Q9 401-1204 E704Q partner limits assumed)
Procedure: as §1

interaction with PPAR (PPAR (LBD of mPPARα)): ligand-dependent manner
interaction with COUP-TFI (COUP (LBD of COUP-TFI)): did not interact
transcriptional activation by PR on the MMTV-LTR promoter [1]: enhanced transcriptional activation
interaction with VDR [2]: ligand-dependent manner
Substance: RAC3: transcriptional coactivator of steroid/nuclear receptors, protein of about 1417 amino acids (SEQ ID NO:2); RAC3.1 is the two-hybrid clone, amino acids 401–1204
interaction with RAR (RAR (full-length hRARα)): Ligand treatment enhanced these interactions
